# Test results taken from the Human Domainome abundance scans (Beltran et al. 2025).
# ± gives the uncertainty stated by the source.
# B1: Pituitary-specific positive transcription factor 1, residues 130 to 198; numbered along this chain, P28069 (parent)
# chain: RELEKFANEFKVRRIKLGYTQTNVGEALAAVHGSEFSQTTICRFENLQLSFKNACKLKAILSKWLEEAE
# Variants of: B1
# Test: abundance fitness (aPCA) (normalised: wild type 0, dead -1); higher = more abundant; growth selection in yeast, the domain comes from the species named
# Conditions: Homo sapiens
row,Variant,abundance fitness
1,RELEKFANEFKVRRMKLGYTQTNVGEALAAVHGSEFSQTTICRFENLQLSFKNACKLKAILSKWLEEAE,0.014 ± 0.058
2,RELEKFANEFKVRRITLGYTQTNVGEALAAVHGSEFSQTTICRFENLQLSFKNACKLKAILSKWLEEAE,-0.809 ± 0.15
3,RELEKFALEFKVRRIKLGYTQTNVGEALAAVHGSEFSQTTICRFENLQLSFKNACKLKAILSKWLEEAE,0.093 ± 0.072
4,RELEKFASEFKVRRIKLGYTQTNVGEALAAVHGSEFSQTTICRFENLQLSFKNACKLKAILSKWLEEAE,0.034 ± 0.059
5,RELEKFAREFKVRRIKLGYTQTNVGEALAAVHGSEFSQTTICRFENLQLSFKNACKLKAILSKWLEEAE,0.188 ± 0.076
6,RELEKFANEFKVRRIKLGYTQTNVGEALAAVHGKEFSQTTICRFENLQLSFKNACKLKAILSKWLEEAE,0.09 ± 0.066
7,RELEKFDNEFKVRRIKLGYTQTNVGEALAAVHGSEFSQTTICRFENLQLSFKNACKLKAILSKWLEEAE,-0.783 ± 0.15
8,RELEKFRNEFKVRRIKLGYTQTNVGEALAAVHGSEFSQTTICRFENLQLSFKNACKLKAILSKWLEEAE,-0.7 ± 0.094
9,RELEKFENEFKVRRIKLGYTQTNVGEALAAVHGSEFSQTTICRFENLQLSFKNACKLKAILSKWLEEAE,-0.235 ± 0.11
10,RELEKFANEFKVRRIKLGYTQTNVGEALCAVHGSEFSQTTICRFENLQLSFKNACKLKAILSKWLEEAE,-0.361 ± 0.086
11,RELENFANEFKVRRIKLGYTQTNVGEALAAVHGSEFSQTTICRFENLQLSFKNACKLKAILSKWLEEAE,-0.079 ± 0.056
12,RELELFANEFKVRRIKLGYTQTNVGEALAAVHGSEFSQTTICRFENLQLSFKNACKLKAILSKWLEEAE,-0.227 ± 0.039
13,REKEKFANEFKVRRIKLGYTQTNVGEALAAVHGSEFSQTTICRFENLQLSFKNACKLKAILSKWLEEAE,-0.718 ± 0.26
14,REEEKFANEFKVRRIKLGYTQTNVGEALAAVHGSEFSQTTICRFENLQLSFKNACKLKAILSKWLEEAE,-0.725 ± 0.29
15,RESEKFANEFKVRRIKLGYTQTNVGEALAAVHGSEFSQTTICRFENLQLSFKNACKLKAILSKWLEEAE,-0.855 ± 0.19
16,REREKFANEFKVRRIKLGYTQTNVGEALAAVHGSEFSQTTICRFENLQLSFKNACKLKAILSKWLEEAE,-0.751 ± 0.24
17,RELEKFANEFKVRRIKLGYTQTNVGEALAAVHASEFSQTTICRFENLQLSFKNACKLKAILSKWLEEAE,-0.555 ± 0.074
18,RELEKFANEFKVRRIKLGYTQTNVGEALAAVHGSEFSQTTIWRFENLQLSFKNACKLKAILSKWLEEAE,-0.101 ± 0.059
19,RELEKFANEFKVRRIKLGYTQTNVGEALAAVHGSEFSQTTICRFENLQLSQKNACKLKAILSKWLEEAE,-0.061 ± 0.1
20,RELEKFANEFKVRRIKLGYTQTNVGEALAAVHGSEFSQTTICRFENLQLSFKNACKLKAWLSKWLEEAE,-0.611 ± 0.14
21,RELEKFANEFKVRRIKLGYTQTNVGEALAAVHGSEFSQTTICRFENLQLSFKNACKLKADLSKWLEEAE,-0.343 ± 0.11
22,RELEKFANEFKVRRIKLGYTQTNVGEALAAVHGSEFSQTTICRFENLQLSFKNACKLKAELSKWLEEAE,-0.567 ± 0.21
23,RELEKFANEFKVRRIKLGYTQTNVGEALAAVHGSEFSQTTICRFENLQLSFKNACKLKAILSKWLEEAA,-0.436 ± 0.12
24,RELEKFANEFKVRRIKLGYTQTNVGEALAAVHGSEFSQTTICRFENLQLSFKNACKLKAILSKWLEEAV,-0.874 ± 0.29
25,RELEKFANEFKVRRIKLGYTQTNVGEALAAVHGSEFSQTTICRFENLQLSFKNACKLKAILSKWLEEAF,-0.616 ± 0.32
26,RELEKFANEFKVRRIKLGYTQTNVGEALAAVHGSEFSQTTICRFANLQLSFKNACKLKAILSKWLEEAE,-0.415 ± 0.1

row,Variant,abundance fitness
1,RELEKFANEFKVRRIKLGYTQTNVGEALAAVHGSEFSQTTICRFEFLQLSFKNACKLKAILSKWLEEAE,-0.798 ± 0.24
2,RELEKFANEFKVRRIKLGYTQTNVGEALAAVHGSEFSQTTICRFEPLQLSFKNACKLKAILSKWLEEAE,-0.89 ± 0.4
3,RELEKFANEFKVRRIKLGYTQTNVREALAAVHGSEFSQTTICRFENLQLSFKNACKLKAILSKWLEEAE,-0.813 ± 0.087
4,RELEKFANEFKVRRIKLGYTQTNVTEALAAVHGSEFSQTTICRFENLQLSFKNACKLKAILSKWLEEAE,-0.325 ± 0.12
5,RELEKFANEFKVLRIKLGYTQTNVGEALAAVHGSEFSQTTICRFENLQLSFKNACKLKAILSKWLEEAE,-0.913 ± 0.35
6,RELEKFANEFKVSRIKLGYTQTNVGEALAAVHGSEFSQTTICRFENLQLSFKNACKLKAILSKWLEEAE,-0.924 ± 0.26
7,RELEKFANEFKVRRIKLGYTQTNVGEALAAVHGSEFNQTTICRFENLQLSFKNACKLKAILSKWLEEAE,0.117 ± 0.069
8,RELEKFANEFKVRRIKLGYTQTNVGEELAAVHGSEFSQTTICRFENLQLSFKNACKLKAILSKWLEEAE,0.137 ± 0.095
9,RELYKFANEFKVRRIKLGYTQTNVGEALAAVHGSEFSQTTICRFENLQLSFKNACKLKAILSKWLEEAE,-0.604 ± 0.24
10,RELEKFANEFKVRRIKLGYTQTNVGEALAAVHGSEFSQTTICRFENLQLSFKNACKVKAILSKWLEEAE,0.063 ± 0.038
11,RELEKFANEFKVRRIKLGYTQTNVGEALAAVHGSEFSQTTICRFENLQVSFKNACKLKAILSKWLEEAE,-0.323 ± 0.055
12,RELEKFANEFKVRRIKLGYTQTRVGEALAAVHGSEFSQTTICRFENLQLSFKNACKLKAILSKWLEEAE,-0.053 ± 0.059
13,RELEKFANEFKVRRIKLGYTQTLVGEALAAVHGSEFSQTTICRFENLQLSFKNACKLKAILSKWLEEAE,-0.478 ± 0.12
14,RELEKFANEFKVRRIKLGYTQTNVGEALAAVHGSEFSQTTICRFENLQLSFKNMCKLKAILSKWLEEAE,0.358 ± 0.08
15,RELEKFANEFKVRRIKLGYTQTNVGEALAAVHGSEFSQTTICRFENLQLSFKNYCKLKAILSKWLEEAE,-0.333 ± 0.16
16,RELEKFANEFKVRRIKLGYTQTNVGEALAAVHGSEFSQTTICRFENLQLSFKNWCKLKAILSKWLEEAE,-0.302 ± 0.14
17,RELEKFANEFKVRRIKLGYTQTNVGEALAASHGSEFSQTTICRFENLQLSFKNACKLKAILSKWLEEAE,-0.004 ± 0.04
18,RELEKFANMFKVRRIKLGYTQTNVGEALAAVHGSEFSQTTICRFENLQLSFKNACKLKAILSKWLEEAE,-0.11 ± 0.056
19,RELEKFANRFKVRRIKLGYTQTNVGEALAAVHGSEFSQTTICRFENLQLSFKNACKLKAILSKWLEEAE,-0.645 ± 0.16
20,RELEKFANDFKVRRIKLGYTQTNVGEALAAVHGSEFSQTTICRFENLQLSFKNACKLKAILSKWLEEAE,0.031 ± 0.074
21,RELEKFANPFKVRRIKLGYTQTNVGEALAAVHGSEFSQTTICRFENLQLSFKNACKLKAILSKWLEEAE,-0.917 ± 0.31
22,RELEKFANKFKVRRIKLGYTQTNVGEALAAVHGSEFSQTTICRFENLQLSFKNACKLKAILSKWLEEAE,-0.323 ± 0.091
23,RRLEKFANEFKVRRIKLGYTQTNVGEALAAVHGSEFSQTTICRFENLQLSFKNACKLKAILSKWLEEAE,-0.624 ± 0.091
24,RALEKFANEFKVRRIKLGYTQTNVGEALAAVHGSEFSQTTICRFENLQLSFKNACKLKAILSKWLEEAE,-0.412 ± 0.087
25,RELEKFANEFKVRRIKLGYTQTNVGEALAAVHGSEFSQTTICRFENLQLSFKNACKLKAILSKGLEEAE,-0.568 ± 0.077
26,RELEKFANEFKVRRIKLGYTQTNVGEALAAVHGSEFSQTTICRFENLQLSFKNACKLTAILSKWLEEAE,-0.477 ± 0.072

row,Variant,abundance fitness
1,RELEKFANEFKVRRIKLGYTQTNVGEALAAVHGSEFSQTTICRFENLQLSFKNACKLLAILSKWLEEAE,-0.848 ± 0.081
2,RELEKFANEFKVRRIKLGYTQTNVGEALAAVHGSEFSQTTICRFENLQLSFKNACKLKAILSKWLREAE,-0.241 ± 0.051
3,RELEKFANEFKVRRIKLGYTQTNVGEALAAVHGSEFSQTTICRFENLQLSFKNACKLKAILSKWLKEAE,-0.296 ± 0.099
4,RELEKFANEFKVRRIKLGETQTNVGEALAAVHGSEFSQTTICRFENLQLSFKNACKLKAILSKWLEEAE,-0.934 ± 0.33
5,RELEKFANEFKVRRIKLGCTQTNVGEALAAVHGSEFSQTTICRFENLQLSFKNACKLKAILSKWLEEAE,-0.562 ± 0.15
6,RELEKFANEFKVRRIKLGITQTNVGEALAAVHGSEFSQTTICRFENLQLSFKNACKLKAILSKWLEEAE,-0.382 ± 0.21
7,RELEKFANEFKVRRIKLGYTQTNVGEALAAVHGSEFSQTSICRFENLQLSFKNACKLKAILSKWLEEAE,-0.348 ± 0.091
8,RELEKFANEFKVRRIKLGYTQTNVGEALAAVHGSEFSQTIICRFENLQLSFKNACKLKAILSKWLEEAE,-0.642 ± 0.43
9,RELEKFANEFKVRRIKLGYTQTNVGEALAAVHGSEFSQTQICRFENLQLSFKNACKLKAILSKWLEEAE,-0.211 ± 0.075
10,RELEKFANEFKVRRIKLGYTQTNVGEALAAVHGSEFSQTTICRFENLQLSFKNACKLKAILSKWIEEAE,0.105 ± 0.2
11,RELEKFANEFKVRRIKLGYTQTNVGEALAAVHGSEFSQTTICRFENLQLSFKNACKLKAILSKWAEEAE,-0.772 ± 0.1
12,RELEKFANEFKVRRIKLGYTQTNVGEALAAVHGSEFSQTTICRFENLQLSFKNACKLKAILSKWSEEAE,-0.636 ± 0.093
13,RELEKFANEFKVRRIKLGYTQVNVGEALAAVHGSEFSQTTICRFENLQLSFKNACKLKAILSKWLEEAE,-0.328 ± 0.11
14,RELEKFANEFKVRRIKLGYTQTNVGEALAAVHGSEFSQTTICRFENLGLSFKNACKLKAILSKWLEEAE,-0.673 ± 0.088
15,RELEKFANEFKVRRIKLGYTQTNVGEALAAVHGSEFSQTTICRFENLWLSFKNACKLKAILSKWLEEAE,-0.915 ± 0.36
16,RELEKFANEFKVRRIKLGYTNTNVGEALAAVHGSEFSQTTICRFENLQLSFKNACKLKAILSKWLEEAE,-0.766 ± 0.29
17,RELEKFANEFKVRRIKLGYTITNVGEALAAVHGSEFSQTTICRFENLQLSFKNACKLKAILSKWLEEAE,-0.246 ± 0.088
18,RELEKFANEFKVRRIKLGYTQTNVGEALAAVHGSEFSQTTICRFENLQLSFKNACKLKAILHKWLEEAE,-0.127 ± 0.12
19,RELEKFANEFKVRRIKLGYTQTNVGEALAAVHGSEFSQTTICRLENLQLSFKNACKLKAILSKWLEEAE,-0.76 ± 0.077
20,RELEKFANEFKVRRIKLGYTQTNVGEALAAVHGSEFSQTTICRAENLQLSFKNACKLKAILSKWLEEAE,-0.958 ± 0.26
21,RELEKFANEFKVRRIKLGYTQTNVGEALAAVHGSEFSQTTICRFENLQLTFKNACKLKAILSKWLEEAE,-0.206 ± 0.082
22,RELEKFANEFKVRRIKLGYTQTNVGEALAAVHGSEFSQTTICRFENLQLFFKNACKLKAILSKWLEEAE,-0.724 ± 0.31
23,RELEKFANEFKKRRIKLGYTQTNVGEALAAVHGSEFSQTTICRFENLQLSFKNACKLKAILSKWLEEAE,-0.071 ± 0.088
24,RELEKFANEFKVRRIKLGYTQTNVGEALAAVHGSRFSQTTICRFENLQLSFKNACKLKAILSKWLEEAE,-0.208 ± 0.055
25,RELEKFANEFKVRPIKLGYTQTNVGEALAAVHGSEFSQTTICRFENLQLSFKNACKLKAILSKWLEEAE,-0.781 ± 0.27
26,RELEKFANEFKVRNIKLGYTQTNVGEALAAVHGSEFSQTTICRFENLQLSFKNACKLKAILSKWLEEAE,-0.897 ± 0.35
